From article PMC6965034, “PAK Kinases Target Sortilin and Modulate Its Sorting” (Molecular and Cellular Biology, 2019)

Molecular target: T1, GST-tagged PAK1 (Y270-H545) (human, UniProt Q13153-1 270-545)
T1 construct: human PAK1 C terminus with the entire kinase domain, residues Y270-H545; vector pGEX4T1; also called GST-PAK1; GST-PAK1 kinase domain; source: E. coli BL21, purified; not shown: GST, N-terminal, kept
Experiment: ITC; 25 μM GST-PAK1 in the cell titrated with 100 μM sortilin-cd or peptide in 28 steps of 10 μl at 34°C; 100 mM NaCl, 50 mM Tris-HCl pH 7.5 (pH 7.4 in the results); one set of sites model
Settings: both partners purified

T1 sequence (Q13153 270-545): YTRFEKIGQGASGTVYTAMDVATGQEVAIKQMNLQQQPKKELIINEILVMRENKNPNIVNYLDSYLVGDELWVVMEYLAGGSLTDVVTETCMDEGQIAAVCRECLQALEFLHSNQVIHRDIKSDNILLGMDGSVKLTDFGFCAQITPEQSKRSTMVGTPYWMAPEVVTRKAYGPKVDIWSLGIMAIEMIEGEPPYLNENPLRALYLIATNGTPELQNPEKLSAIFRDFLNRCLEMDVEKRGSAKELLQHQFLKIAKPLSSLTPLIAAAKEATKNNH

Kd: ~2 µM
B1: complete sortilin cytoplasmic domain (K779-E831), GST tag removed (domain or fragment, human, UniProt Q99523-1 779-831, looked up)
chain: KKYVCGGRFLVHRYSVLQQHAEANGVDGVDALDTASHTNKSGYHDDSDEDLLE
notes: human sortilin cytoplasmic domain K779-E831 (K1-E53 of the cytoplasmic domain); vector pGEX4T1; also called sortilin-cd; wt sortilin-cd; source: E. coli BL21, purified, GST tag removed by thrombin cleavage; not shown: GST, N-terminal, cleaved
